From patent publication US11884740 (TG THERAPEUTICS, dated 2024) come the findings set out here.

Holding throughout (experiment): cell-based or functional assay
Assay [1] concerns the target T1, FcγIIIA Receptor on the effector cells (human, UniProt P08637 17-254).
In assay [2] the target is C1q Receptor in the complement system (rabbit serum as the source of complement) (rabbit).
In assay [3] the target is T1, FcγIIIA Receptor on the effector cells. This is another data set of the same source.

T1 sequence (P08637 17-254): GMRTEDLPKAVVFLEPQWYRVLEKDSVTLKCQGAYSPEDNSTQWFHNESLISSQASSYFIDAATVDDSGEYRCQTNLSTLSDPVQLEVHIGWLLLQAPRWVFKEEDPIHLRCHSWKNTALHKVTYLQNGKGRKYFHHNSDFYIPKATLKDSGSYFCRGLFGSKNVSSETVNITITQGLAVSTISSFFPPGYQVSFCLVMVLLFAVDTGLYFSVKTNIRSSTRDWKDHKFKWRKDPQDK

B1: TG-1101 (TG Therapeutics, Inc.) (antibody, human IgG1, kappa)
heavy: not shown
light: QIVLSQSPAILSASPGEKVTMTCRASSSVSYMHWYQQKPGSSPKPWIYATSNLASGVPARFSGSGSGTSYSFTISRVEAEDAATYYCQQWTFNPPTFGGGTRLEIKRTVAAPSVFIFPPSDEQLKSGTASVVCLLNNFYPREAKVQWKVDNALQSGNSQESVTEQDSKDSTYSLSSTLTLSKADYEKHKVYACEVTHQGLSSPVTKSFNRGEC
Consider B1, for which the “EC50 of ADCC assay Using Primary NK Cells (Raji targets, LDH release)” value in assay [1] came to 49000 ng/mL. Further, the “EC50 (CDC, Jeko-1 cells, rabbit complement)” value in assay [2] amounted to 670 ng/mL. Besides, in assay [3], the “EC50 (ADCC, Raji targets, KILR CD16a effector cells)” value is 0.00242 ng/mL.
